# Experimental data as given in article doi:10.1101/190033 (bioRxiv, 2017).
# Assays:
# crystal structure = molecular target: the molecule itself; test: crystal structure
# SEC [1] = molecular target: the molecule itself; test: SEC
# GEMMA = molecular target: the molecule itself; test: GEMMA
# SEC [2] = molecular target: the molecule itself; test: SEC; remark: listed apart in the source
protein,measurement,setting,value
"Leeuwenhoekiella blandensis NrdB, thrombin-cleaved (hexahistidine tag removed), used for crystallization (enzyme, Leeuwenhoekiella blandensis MED217) GSHMSSQEIKKIIKRDYSTAPFVLEKITNAIANAMAALGHGSEQDAKLISMQVYESLLNNKEQESEYIPTVEQVQDMVEDKLMSSEFHDVAKAYIIYRNKRALERKTNIFEKRINLKPYEYPELNEYVAAIRHSYWIHTEFNFTSDIQDFKTGLSEVERSAIKNTMLAISQIEVAVKTFWGDVHHRLPKPEIAAVGATFAESEVRHHDAYSHLLEILGLNEEFKELKKKPVIMKRVHYLETSLKHAKSDDDREYTESILLFALFIEHVSLFSQFLIIMAFNKHKNMLKGISNAVEATSKEEQIHGDFGVDIINIIKKENPEWFDEEHNNLIKEMCLNSFEAESKVVDWIFEKGELDFLPKAVINEFLKNRFNKSLEAIGLEKLFDIDEALLQETEWFDDEIIGTKHGDFFVKRSINYSKRTQSITSDDLF",stoichiometry N,crystal structure,4
"Leeuwenhoekiella blandensis class I ribonucleotide reductase catalytic subunit NrdAi (NrdA) (enzyme, Leeuwenhoekiella blandensis MED217, UniProt A3XHF8 1-600, looked up) MRENTTKLENSTETNVQHTKDNDLLKARRDALQDATEKNTDEPSFDWLTEHSRSFLAAGYLSEGVSAEERIREIADRAEEILRMPGFSDKFYKYMGEGYFSLASPVWSNFGKKRGLPISCFGSHIDDDMGNILYTQSEVGMMSKLGGGTSGYFGKIRHRGAAVKNNGYASGAVHIMQLFDKMVDVVSQGSVRRGRFSPYLPISHPDIKEFLEIGTEGNSIQQLTHGVTVDSTWMQEMIDGDTDKREVWAKVLQRRGEMGYPYIFYTDNANNGKPDVYKDKGHDIYASNLCTEIMLPSSDEWSFVCVLSSINVLHYDKWKNTDAVETMVCFLDAVLTEFIDKLEEYRDSDNRDHRQTFMFMERAYNFAKSNRALGLGVLGWHSLLQSKRHAFDSQEAYDLNSEIFREIKQRSYKASEELAEKFGEPETLKGYGRRNATLNAIAPTTSSAFILGQVSQGIEPIWSNVYVKDIAKIKTTIKNPFLEELFEEKGMNTPEVWRSVRDNDGSVQHLEFLTEQEKDVFKTYAEIDQMAIIYQAANRQNHIDQGQSINLLVHPDMPIKEINKIHITAWKLGLKSLYYQHSMNAAQKFKQKKECVSCEA",stoichiometry N,SEC [1],2
"Leeuwenhoekiella blandensis class I ribonucleotide reductase radical-generating subunit NrdBi (NrdB), wild type (enzyme, Leeuwenhoekiella blandensis MED217, UniProt A3XHF9 1-427, looked up) MSSQEIKKIIKRDYSTAPFVLEKITNAIANAMAALGHGSEQDAKLISMQVYESLLNNKEQESEYIPTVEQVQDMVEDKLMSSEFHDVAKAYIIYRNKRALERKTNIFEKRINLKPYEYPELNEYVAAIRHSYWIHTEFNFTSDIQDFKTGLSEVERSAIKNTMLAISQIEVAVKTFWGDVHHRLPKPEIAAVGATFAESEVRHHDAYSHLLEILGLNEEFKELKKKPVIMKRVHYLETSLKHAKSDDDREYTESILLFALFIEHVSLFSQFLIIMAFNKHKNMLKGISNAVEATSKEEQIHGDFGVDIINIIKKENPEWFDEEHNNLIKEMCLNSFEAESKVVDWIFEKGELDFLPKAVINEFLKNRFNKSLEAIGLEKLFDIDEALLQETEWFDDEIIGTKHGDFFVKRSINYSKRTQSITSDDLF",stoichiometry N,GEMMA,4
same,stoichiometry N,SEC [2],2
